The text below walks through data of PMC11684626.

This test addresses HA-PEG10 gag-pol (Homo sapiens) (UniProt Q86TG7). The test is described as follows: co-sedimentation; crude VLP preparation: conditioned medium of co-transfected HEK293 cells, cleared at 2700 x g, ultracentrifuged at 134,000 x g for 4 hr at 4°C over a 30% sucrose cushion; pellet analysed by western blot.
Sequence of UniProt Q86TG7 (Q86TG7 whole entry): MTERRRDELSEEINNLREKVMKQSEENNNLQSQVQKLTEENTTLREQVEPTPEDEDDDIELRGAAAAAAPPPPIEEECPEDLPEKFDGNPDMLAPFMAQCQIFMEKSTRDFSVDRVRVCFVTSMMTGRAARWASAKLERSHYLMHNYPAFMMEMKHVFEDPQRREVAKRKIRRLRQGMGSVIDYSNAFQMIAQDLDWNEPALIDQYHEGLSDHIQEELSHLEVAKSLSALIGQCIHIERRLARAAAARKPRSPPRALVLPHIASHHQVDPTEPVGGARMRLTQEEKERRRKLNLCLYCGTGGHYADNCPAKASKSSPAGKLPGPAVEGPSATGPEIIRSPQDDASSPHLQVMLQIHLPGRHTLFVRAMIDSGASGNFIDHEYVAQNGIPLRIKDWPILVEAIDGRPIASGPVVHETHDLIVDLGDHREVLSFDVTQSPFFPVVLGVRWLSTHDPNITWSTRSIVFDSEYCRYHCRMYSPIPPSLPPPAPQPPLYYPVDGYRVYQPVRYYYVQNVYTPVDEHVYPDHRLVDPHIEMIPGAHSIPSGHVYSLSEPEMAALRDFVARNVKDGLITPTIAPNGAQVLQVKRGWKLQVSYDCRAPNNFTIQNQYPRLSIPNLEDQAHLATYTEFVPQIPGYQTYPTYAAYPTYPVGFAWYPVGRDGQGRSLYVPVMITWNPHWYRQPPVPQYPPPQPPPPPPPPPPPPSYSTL

The substance “HA-HsRTL8c (from UniProt A6ZKI3 1-113) (natural protein)” yielded an abundance of RTL8 relative to HA-PEG10 in the VLP fraction of 5%.
